T1: NiV-G-Fc, a fusion construct between the ectodomain of NiV-G and the Fc region of human IgG1 (Nipah virus, UniProt Q9IH62 71-602)
T1 chain: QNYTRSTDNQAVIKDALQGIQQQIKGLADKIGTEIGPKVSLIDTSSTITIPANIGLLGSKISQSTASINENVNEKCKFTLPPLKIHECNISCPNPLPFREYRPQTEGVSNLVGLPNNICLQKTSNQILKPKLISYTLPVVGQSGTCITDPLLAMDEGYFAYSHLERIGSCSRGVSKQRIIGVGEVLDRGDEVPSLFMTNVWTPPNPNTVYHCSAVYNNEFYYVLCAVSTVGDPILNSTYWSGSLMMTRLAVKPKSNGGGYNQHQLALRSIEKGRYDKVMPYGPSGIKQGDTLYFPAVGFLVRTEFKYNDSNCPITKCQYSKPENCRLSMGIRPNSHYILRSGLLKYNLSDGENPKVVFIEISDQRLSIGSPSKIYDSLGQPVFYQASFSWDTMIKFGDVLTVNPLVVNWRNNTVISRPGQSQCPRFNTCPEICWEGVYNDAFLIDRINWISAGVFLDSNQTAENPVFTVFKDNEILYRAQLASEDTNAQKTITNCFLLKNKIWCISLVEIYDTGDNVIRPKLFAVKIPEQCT

B1: ephrinB2-Fc (soluble Fc-fusion ephrin protein, purchased) (Fc fusion)
chain: RSIVLEPIYWNSSNSKFLPGQGLVLYPQIGDKLDIICPKVDSKTVGQYEYYKVYMVDKDQADRCTIKKENTPLLNCARPDQDVKFTIKFQEFSPNLWGLEFQKNKDYYIISTSNGSLEGLDNQEGGVCQTRAMKILMKVGQDASSAGSARNHGPTRRPELEAGTNGRSSTTSPFVKPNPGSSTDGNSAGHSGNNLLGSEVA
B2: ephrinB3-Fc (soluble Fc-fusion ephrin protein, purchased) (Fc fusion)
chain: LSLEPVYWNSANKRFQAEGGYVLYPQIGDRLDLLCPRARPPGPHSSPNYEFYKLYLVGGAQGRRCEAPPAPNLLLTCDRPDLDLRFTIKFQEYSPNLWGHEFRSHHDYYIIATSDGTREGLESLQGGVCLTRGMKVLLRVGQSPRGGAVPRKPVSEMPMERDRGAAHSLEPGKENLPGDPTSNATSRGAEGPLPPPSMP

Target: T1, NiV-G-Fc, a fusion construct between …
Experiment: SPR

Binder	Kd
B1	0.11 nM
B2	2.83 nM

— article PMC1361355 (2006)
